In publication PMC9714796 one finds Kd data, which are given here for 1 substance.

The assay has as its target TGF-βRII-Fc (muTGFbRII-mFc) (mouse (from the printed name muTGFbRII-mFc)) (UniProt Q62312). In words: SPR; Biacore T100; TGF-βRII-Fc captured (~50 RU) by an anti-mouse Fc antibody amine-coupled to a CM5 chip; TGF-β2 injected at 0.04-90 nM (0.12-90 nM used for the fit); HBS-EP with 350 mM NaCl and 0.5 mg/mL BSA; steady-state affinity model. (In general: SPR reads the build-up and loss of mass on a sensor chip optically.)

Chain of TGF-βRII-Fc (muTGFbRII-mFc) (mouse (from the printed name muTGFbRII-mFc)) (Q62312 24-166): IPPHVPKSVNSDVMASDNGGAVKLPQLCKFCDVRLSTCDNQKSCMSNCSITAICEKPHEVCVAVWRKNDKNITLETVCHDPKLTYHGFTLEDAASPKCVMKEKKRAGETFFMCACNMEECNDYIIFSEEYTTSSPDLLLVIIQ

In turn, “Transforming growth factor-β2 (TGF-β2) (ligand)” displayed a Kd of 11.6 nM.

For orientation: Kd means the constant that tells how readily two partners part at equilibrium. A higher Kd goes with lower affinity.
